The results in this text go back to publication PMC3538890 (Traffic (Copenhagen, Denmark), 2012).

For this test, the target named is T1, CFP-GS27 (UniProt O14653 1-212).
T1 sequence (looked up): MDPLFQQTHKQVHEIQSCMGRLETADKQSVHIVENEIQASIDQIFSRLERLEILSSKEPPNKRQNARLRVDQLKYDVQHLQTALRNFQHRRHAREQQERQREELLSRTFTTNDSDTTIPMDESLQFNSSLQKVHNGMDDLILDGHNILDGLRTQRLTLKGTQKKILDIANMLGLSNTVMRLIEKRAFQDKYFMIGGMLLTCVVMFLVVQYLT
In words: co-IP.

B1: COG6-myc with deletion of residues 76-112 (natural protein, human, UniProt Q9Y2V7 1-657, looked up)
chain: MAEGSGEVVAVSATGAANGLNNGAGGTSATTCNPLSRKLHKILETRLDNDKEMLEALKALSTFFVENSLRTRRNLNCCQDMTSRLQAAKEQTQDLIVKTTKLQSESQKLEIRAQVADAFLSKFQLTSDEMSLLRGTREGPITEDFFKALGRVKQIHNDVKVLLRTNQQTAGLEIMEQMALLQETAYERLYRWAQSECRTLTQESCDVSPVLTQAMEALQDRPVLYKYTLDEFGTARRSTVVRGFIDALTRGGPGGTPRPIEMHSHDPLRYVGDMLAWLHQATASEKEHLEALLKHVTTQGVEENIQEVVGHITEGVCRPLKVRIEQVIVAEPGAVLLYKISNLLKFYHHTISGIVGNSATALLTTIEEMHLLSKKIFFNSLSLHASKLMDKVELPPPDLGPSSALNQTLMLLREVLASHDSSVVPLDARQADFVQVLSCVLDPLLQMCTVSASNLGTADMATFMVNSLYMMKTTLALFEFTDRRLEMLQFQIEAHLDTLINEQASYVLTRVGLSYIYNTVQQHKPEQGSLANMPNLDSVTLKAAMVQFDRYLSAPDNLLIPQLNFLLSATVKEQIVKQSTELVCRAYGEVYAAVMNPINEYKDPENILHRSPQQVQTLLS
As for B1, the “fold reduction of co-IP against full length COG6-myc” value is approximately 7 fold.

B2: COG6-myc with deletion of residues 112-150 (natural protein, human, UniProt Q9Y2V7 1-657, looked up)
chain: MAEGSGEVVAVSATGAANGLNNGAGGTSATTCNPLSRKLHKILETRLDNDKEMLEALKALSTFFVENSLRTRRNLRGDIERKSLAINEEFVSIFKEVKEELESISEDVQAMQVADAFLSKFQLTSDEMSLLRGTREGPITEDFFKALGRVKQIHNDVKVLLRTNQQTAGLEIMEQMALLQETAYERLYRWAQSECRTLTQESCDVSPVLTQAMEALQDRPVLYKYTLDEFGTARRSTVVRGFIDALTRGGPGGTPRPIEMHSHDPLRYVGDMLAWLHQATASEKEHLEALLKHVTTQGVEENIQEVVGHITEGVCRPLKVRIEQVIVAEPGAVLLYKISNLLKFYHHTISGIVGNSATALLTTIEEMHLLSKKIFFNSLSLHASKLMDKVELPPPDLGPSSALNQTLMLLREVLASHDSSVVPLDARQADFVQVLSCVLDPLLQMCTVSASNLGTADMATFMVNSLYMMKTTLALFEFTDRRLEMLQFQIEAHLDTLINEQASYVLTRVGLSYIYNTVQQHKPEQGSLANMPNLDSVTLKAAMVQFDRYLSAPDNLLIPQLNFLLSATVKEQIVKQSTELVCRAYGEVYAAVMNPINEYKDPENILHRSPQQVQTLLS
Turning to B2, the “fold reduction of co-IP against full length COG6-myc” value was approximately 7 fold.
